Data reported in patent publication US10570431B2, “Compositions comprising a polypeptide having cellulolytic enhancing activity and a heterocyclic compound and uses thereof” (priority 2013, dated 2020).

Tested on: Trichoderma reesei cellulase composition
Test: Hydrolysis of AVICEL (microcrystalline cellulose) by the T. reesei cellulase composition, with/without GH61 polypeptide or heterocyclic compound
Format: biochemical
Conditions: for heterocyclic compound effect(no GH61) (ratio of percent conversion with compound to without) / heterocyclic compound effect(no GH61): AVICEL; for Percent conversion of AVICEL: GH61 present, no heterocyclic compound, one experiment
[1] = 1 day, 13.7±0.6% in the absence of GH61
[2] = 3 days, 28.6±0.4% in the absence of GH61
[3] = 7 days, 44±1% in the absence of GH61

Cc1cc(O)no1 [3-hydroxy-5-methylisoxazole]
heterocyclic compound effect(no GH61) (ratio of percent conversion with compound to without) (compound 5 mM, 1, 3 and 7 days): ~1

O=Cc1ccc(CO)o1 [5-(hydroxymethyl)furfural]
heterocyclic compound effect(no GH61) (compound 1 mM, 1, 3 and 7 days): greater than 1

O=C1O[C@H](CO)[C@@H](O)[C@H]1O [ribonic γ-lactone]
heterocyclic compound effect(no GH61) (ratio of percent conversion with compound to without) (compound 5 mM, 1, 3 and 7 days): less than 1

C=C(C)CO [2-methyl-2-propen-1-ol]
heterocyclic compound effect(no GH61) (ratio of percent conversion with compound to without) (compound 5 mM, 1, 3 and 7 days): decreased later stages of hydrolysis

O=C1O[C@H](CO)[C@H](O)[C@H]1O [D-xylonic γ-lactone]
heterocyclic compound effect(no GH61) (compound 5 mM, day 1 or 7): ~1

O=c1cc(O)c2ccccc2o1 [4-hydroxycoumarin]
heterocyclic compound effect(no GH61) (compound 1 mM, 1, 3 and 7 days): very slightly decreased

OC[C@H]1OC=C[C@@H](O)[C@@H]1O [D-glucal, 1,5-anhydro-2-deoxy-D-arabino-hex-1-enitol]
heterocyclic compound effect(no GH61) (ratio of percent conversion with compound to without) (compound 5 mM, 1, 3 and 7 days): less than 1

O=CC(=O)C[C@H](O)[C@H](O)CO [3-deoxyglucosone, 3-deoxy-D-erythro-hexosulose]
heterocyclic compound effect(no GH61) (ratio of percent conversion with compound to without) (compound 5 mM, 1, 3 and 7 days): ~1

B1: Talaromyces stipitatus GH61A polypeptide: GH61A polypeptide having cellulolytic enhancing activity (SEQ ID NO: 164), recombinantly prepared as described in Example 3 (protein, listed as Talaromyces stipitatus)
chain: MPSTKVAALSAVLALASTVAGHGFVQNIVIDGKSYTGYLVNQYPYQSNPPAVIGWSTTATDLGFVDGSGYTNPDIICHKNAKPGQLSAPVAAGGKVELEWTTWPESHHGPVISYLANCNGDCTTVDKTKLEFVKIDQRGLIDDSNPPGTWAADQLIAANNSWTVTIPESIAPGNYVLRHEIIALHSANNATGAQNYPQCINLQITGSGTANPSGTPGEKLYTPTDPGILVNIYQSLSSYVIPGPTLWSGAAAHVVATAAGSATGVASATATPTTLVTAVSSPTGAPSVVTPEAPSVTSFAPVVTVTDVVTVTTVITTTIS
Percent conversion of AVICEL [1]: 13.6±0.4%
Percent conversion of AVICEL [2]: 27.9±0.2%
Percent conversion of AVICEL [3]: 44.7±0.5%

B2: Penicillium pinophilum GH61A polypeptide: GH61A polypeptide having cellulolytic enhancing activity (SEQ ID NO: 32), recombinantly prepared using Aspergillus oryzae HowB101 as a host (protein, listed as Penicillium pinophilum)
chain: MPSTKVAALSAVLALASTVAGHGFVQNIVIDGKSYSGYLVNQFPYESNPPAVIGWATTATDLGFVAPSEYTNADIICHKNATPGALSAPVAAGGTVELQWTTWPDSHHGPVISYLANCNGNCSTVDKTKLDFVKIDQGGLIDDTTPPGTWASDKLIAANNSWTVTIPSTIAPGNYVLRHEIIALHSAGNADGAQNYPQCINLEITGSGTAAPSGTAGEKLYTSTDPGILVNIYQSLSTYVIPGPTLWSGAANGAVATGSATAVATTATASATATPTTLVTSVAPASSTFATAVVTTVAPAVTDVVTVTDVVTVTTVITTTVL
Percent conversion of AVICEL [1]: 14.1±0.4%
Percent conversion of AVICEL [2]: 28.5±0.5%
Percent conversion of AVICEL [3]: 46±2%

B3: Aspergillus fumigatus GH61B polypeptide: GH61 polypeptide having cellulolytic enhancing activity (SEQ ID NO: 30), recombinantly prepared using Aspergillus oryzae JaL355 as a host (protein, listed as Aspergillus fumigatus)
chain: MTLSKITSIAGLLASASLVAGHGFVSGIVADGKYYGGYLVNQYPYMSNPPDTIAWSTTATDLGFVDGTGYQSPDIICHRDAKNGKLTATVAAGSQIEFQWTTWPESHHGPLITYLAPCNGDCATVDKTTLKFVKIAAQGLIDGSNPPGVWADDEMIANNNTATVTIPASYAPGNYVLRHEIIALHSAGNLNGAQNYPQCFNIQITGGGSAQGSGTAGTSLYKNTDPGIKFDIYSDLSGGYPIPGPALFNA
Percent conversion of AVICEL [1]: 13.6±0.2%
Percent conversion of AVICEL [2]: 29±1%
Percent conversion of AVICEL [3]: 46±2%
